Reference: the supplement of paper PMC10567573

B1: NECAB1 (parent)
chain: NLDTEELCEYFSQHLGEYENVLAA

Variants of: B1
Test: protein stability index of a GFP-peptide fusion (GPS, HEK-293T) (PSI 1-6); higher = more stable
Conditions: c terminus: a fixed tail appended
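Further: lentivirally expressed fusions sorted by FACS into six bins by GFP to DsRed ratio, PSI derived from sequencing read proportions per bin multiplied by bin number.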

Point of comparison: NLDTEELCEYFSQHLGEYENVTAA, protein stability index 4.36. Against it:
- NLDTEELCEYFSQHLGEYENVNAA — the same, 4.36
- NLDTEELCEYFSQHLGEYENVAAA — lower, 4.35
- NLDTEELCEYFSQHLGEYENVHAA — lower, 4.32
- NLDTEELCEYFSQHLGEYENVFAA — lower, 1.86
- NLDTEELCEYFSQHLGEYENVMAA — lower, 3.71
- NLDTEELCEYFSQHLGEYENVEAA — higher, 4.42
- NLDTEELCEYFSQHLGEYENVRAA — higher, 4.39
- NLDTEELCEYFSQHLGEYENVYAA — lower, 3.52
- NLDTEELCEYFSQHLGEYENVSAA — higher, 4.64
- NLDTEELCEYFSQHLGEYENVQAA — the same, 4.36
- NLDTEELCEYFSQHLGEYENVWAA — lower, 2.55
- NLDTEELCEYFSQHLGEYENVIAA — lower, 2.53
- NLDTEELCEYFSQHLGEYENVDAA — higher, 4.98
- NLDTEELCEYFSQHLGEYENVKAA — higher, 4.61
- NLDTEELCEYFSQHLGEYENVVAA — lower, 3.26
- NLDTEELCEYFSQHLGEYENVCAA — higher, 4.64
- NLDTEELCEYFSQHLGEYENVGAA — lower, 4.3
- NLDTEELCEYFSQHLGEYENVPAA — lower, 4.25
- NLDTEELCEYFSQHLGEYENVLFA — lower, 2.28
- NLDTEELCEYFSQHLGEYENVLVA — lower, 2.21
- NLDTEELCEYFSQHLGEYENVLCA — lower, 2.46
- NLDTEELCEYFSQHLGEYENVLRA — lower, 2.51
- NLDTEELCEYFSQHLGEYENVLIA — lower, 2.02
- NLDTEELCEYFSQHLGEYENVLTA — lower, 3.06
- NLDTEELCEYFSQHLGEYENVLWA — lower, 1.91
- NLDTEELCEYFSQHLGEYENVLKA — lower, 2.17
- NLDTEELCEYFSQHLGEYENVLEA — higher, 4.5
- NLDTEELCEYFSQHLGEYENVLQA — lower, 3.68
- NLDTEELCEYFSQHLGEYENVLMA — lower, 2.18
- NLDTEELCEYFSQHLGEYENVLNA — lower, 3.98
- NLDTEELCEYFSQHLGEYENVLLA — lower, 1.75
- NLDTEELCEYFSQHLGEYENVLPA — lower, 3.65
- NLDTEELCEYFSQHLGEYENVLGA — lower, 2.93
- NLDTEELCEYFSQHLGEYENVLSA — lower, 2.23
- NLDTEELCEYFSQHLGEYENVLYA — lower, 2.2
- NLDTEELCEYFSQHLGEYENVLHA — lower, 2.83
- NLDTEELCEYFSQHLGEYENVLDA — higher, 4.52
- NLDTEELCEYFSQHLGEYENVLAS — lower, 3.21
- NLDTEELCEYFSQHLGEYENVLAM — lower, 1.92
- NLDTEELCEYFSQHLGEYENVLAK — lower, 2.69
- NLDTEELCEYFSQHLGEYENVLAN — lower, 2.02
- NLDTEELCEYFSQHLGEYENVLAV — lower, 2.8
- NLDTEELCEYFSQHLGEYENVLAC — lower, 2.25
- NLDTEELCEYFSQHLGEYENVLAG — lower, 2.22
- NLDTEELCEYFSQHLGEYENVLAQ — lower, 3.12
- NLDTEELCEYFSQHLGEYENVLAF — lower, 2.02
- NLDTEELCEYFSQHLGEYENVLAL — lower, 2.82
- NLDTEELCEYFSQHLGEYENVLAE — lower, 3.53
- NLDTEELCEYFSQHLGEYENVLAP — lower, 3.43
- NLDTEELCEYFSQHLGEYENVLAD — lower, 3.98
- NLDTEELCEYFSQHLGEYENVLAI — lower, 2.26
- NLDTEELCEYFSQHLGEYENVLAT — lower, 2.99
- NLDTEELCEYFSQHLGEYENVLAH — lower, 3.35
- NLDTEELCEYFSQHLGEYENVLAW — lower, 2.27
- NLDTEELCEYFSQHLGEYENVLAY — lower, 2.59
- NLDTEELCEYFSQHLGEYENVLAR — lower, 1.82
- NLDTEELCEYFSQHLGEYENRLAA — lower, 2.97
- NLDTEELCEYFSQHLGEYENQLAA — lower, 3.52
- NLDTEELCEYFSQHLGEYENWLAA — lower, 1.68
- NLDTEELCEYFSQHLGEYENSLAA — lower, 3.88
- NLDTEELCEYFSQHLGEYENTLAA — lower, 3.43
- NLDTEELCEYFSQHLGEYENYLAA — lower, 1.98
